Numbering of substitutions follows the chain as printed. Blank lines part the entries; values can stand above or below the binder they belong to.
Columns and labels:
[1] = target: T1, recombinant cynomolgus monkey PD-L1 soluble protein (biotinylated) (cynomolgus monkey, UniProt G7PSE7 19-238, biotinylated (site not stated); vendor tag not carried in the letters); assay: sandwich ELISA: antibody captured on coated anti-human Fc, biotinylated recombinant cynomolgus PD-L1 titrated (x axis, nM), streptavidin-HRP/Amplex red fluorescence
T1 construct: Two suppliers are named for the two assays; also called Cyno PD-L1; cynomolgus PD-L1; not shown: vendor tag(s) of the recombinant proteins (Sino Biological; Acrobiosystems #PD1-052H4) and the biotin label

[2] = target: T2, recombinant human PD-L1 soluble protein (biotinylated) (human, UniProt Q9NZQ7 19-238, biotinylated); assay: sandwich ELISA: antibody captured on coated anti-human Fc, biotinylated recombinant human PD-L1 titrated (x axis, nM), streptavidin-HRP/Amplex red fluorescence
T2 construct: Bought soluble protein; also called hPD-L1

[3] = target: T3, recombinant mouse PD-L1 soluble protein (biotinylated) (mouse, UniProt Q9EP73 19-239, limits assumed, biotinylated); assay: sandwich ELISA: antibody captured on coated anti-human Fc, biotinylated recombinant mouse PD-L1 titrated (x axis, nM), streptavidin-HRP/Amplex red fluorescence
T3 construct: Two sources are named for the two assays

[4] = target: T4, human CD47 on cells (Raji, Nalm-6, HT-1080 tumor cells, human red blood cells) (human, UniProt Q08722 19-323); assay: flow cytometry on human red blood cells (CD47+, PD-L1-), detection with AF647 anti-human Fc F(ab')2
T4 construct: whole, on cells; Raji, Nalm-6 and red blood cells carry no or very little PD-L1; HT-1080 carries both targets; also called IAP

[5] = target: T2, recombinant human PD-L1 soluble protein …; assay: BLI (OctetRED96), biotinylated PD-L1 on streptavidin biosensors, bsAb in solution, 1:1 global fit, 30 °C
[6] = target: T5, recombinant human PD-L2 soluble protein (biotinylated) (human, UniProt Q9BQ51 20-220, limits assumed, biotinylated); assay: sandwich ELISA: antibody captured on coated anti-Fc, biotinylated recombinant human PD-L2 titrated, streptavidin-HRP/Amplex red fluorescence
T5 construct: Bought soluble protein
T5 sequence (looked up): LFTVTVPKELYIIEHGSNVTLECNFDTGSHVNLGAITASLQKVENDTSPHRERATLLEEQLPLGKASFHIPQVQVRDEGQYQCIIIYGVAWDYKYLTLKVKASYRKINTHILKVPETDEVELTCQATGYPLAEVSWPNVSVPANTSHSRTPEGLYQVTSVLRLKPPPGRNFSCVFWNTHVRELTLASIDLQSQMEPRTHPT

[7] = target: T1, recombinant cynomolgus monkey PD-L1 …; assay: BLI (OctetRED96), biotinylated cynomolgus PD-L1 on streptavidin biosensors, bsAb in solution, 1:1 global fit, 30 °C
[8] = target: T6, human PD-L1 on cells (human PD-L1-transfected CHO cells; IFNg-induced HT-1080 tumor cells) (human, UniProt Q9NZQ7 19-290); assay: inhibition of human PD-1-moFc binding to human PD-L1-transfected CHO cells, CellInsight CX5
T6 construct: whole, on cells; CHO transfectants are negative for human CD47; HT-1080 cells also carry CD47; also called hPD-L1-transfected CHO cells; PD-L1+CD47+ HT-1080

[9] = target: T3, recombinant mouse PD-L1 soluble protein …; assay: BLI (OctetRED96), biotinylated mouse PD-L1 on streptavidin biosensors, bsAb in solution, 1:1 global fit, 30 °C
[10] = target: T6, human PD-L1 on cells (human …); assay: inhibition of human PD-1-moFc binding to IFNg-induced PD-L1+CD47+ HT-1080 cells, CellInsight CX5
[11] = target: T3, recombinant mouse PD-L1 soluble protein …; assay: sandwich ELISA: antibody captured on coated anti-human Fc, biotinylated recombinant mouse PD-L1 titrated, streptavidin-HRP/Amplex red fluorescence

T3 sequence (Q9EP73 19-239 limits assumed): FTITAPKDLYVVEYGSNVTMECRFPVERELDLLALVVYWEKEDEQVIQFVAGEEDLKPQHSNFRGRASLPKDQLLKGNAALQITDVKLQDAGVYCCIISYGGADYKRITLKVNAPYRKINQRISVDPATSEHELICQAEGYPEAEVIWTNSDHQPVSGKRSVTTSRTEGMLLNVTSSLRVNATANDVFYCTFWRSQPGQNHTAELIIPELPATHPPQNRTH
T6 sequence (Q9NZQ7 19-290): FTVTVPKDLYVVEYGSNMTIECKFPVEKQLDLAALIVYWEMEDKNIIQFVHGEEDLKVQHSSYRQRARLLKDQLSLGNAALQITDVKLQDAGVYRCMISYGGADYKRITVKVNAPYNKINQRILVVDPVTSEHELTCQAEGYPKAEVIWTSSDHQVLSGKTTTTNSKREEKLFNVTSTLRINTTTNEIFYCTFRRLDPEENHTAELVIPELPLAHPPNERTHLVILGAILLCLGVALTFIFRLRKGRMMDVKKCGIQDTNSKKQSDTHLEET
T2 sequence (Q9NZQ7 19-238 limits assumed): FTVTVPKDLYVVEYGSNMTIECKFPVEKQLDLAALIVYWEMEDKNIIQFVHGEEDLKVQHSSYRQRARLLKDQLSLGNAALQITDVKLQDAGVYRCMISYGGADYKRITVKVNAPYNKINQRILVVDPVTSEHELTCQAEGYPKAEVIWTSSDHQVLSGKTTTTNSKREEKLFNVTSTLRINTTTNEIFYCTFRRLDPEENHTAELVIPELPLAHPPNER
T1 sequence (G7PSE7 entry or part of it limits assumed): as the sequence (Q9NZQ7 19-238 limits assumed) above, with A33T, A34S, S62N, R68Q, Q82R, F173L, T185A, T192I, H215L counted along it

B1: S46 bsAb (bispecific antibody, human IgG1, kappa, lambda)
common heavy chain: not shown
kappa light chain (anti-CD47 K2): not shown
lambda light chain (anti-PD-L1 S46): QSALTQPASVSGSPGQSITISCTGTSSDVLRPPLVSWYQQHPGKAPKLMIYFASLRPSGVSNRFSGSKSGNTASLTISGLQAEDEADYYCSSWDNAGDGHVFGGGTKLTVLGQPKAAPSVTLFPPSSEELQANKATLVCLISDFYPGAVTVAWKADSSPVKAGVETTTPSKQSNNKYAASSYLSLTPEQWKSHRSYSCQVTHEGSTVEKTVAPTECS
notes: also called K2xS46 CD47xPD-L1 bispecific antibody; K2xS46
- EC50 (read off the curve) [1]: ~0.6 nM
- EC50 (read off the curve) [2]: ~0.1 nM
- EC50 (read off the curve) [3]: ~0.07 nM

B3: K2×S79 CD47×PD-L1 bispecific antibody (bispecific antibody, human IgG1, kappa, lambda)
heavy: not shown
light 1: not shown
light 2: B1 lambda light chain (anti-PD-L1 S46) with L30F, N95H, A96T
notes: also called K2xS79; S79 bsAb
- EC50 (read off the curve) [1]: ~0.03 nM
- EC50 (read off the curve) [2]: ~0.07 nM
- EC50 (read off the curve) [3]: ~0.03 nM
- Kd [7]: 1.35 nM
- IC50 [8]: 0.03 nM
- Kd [9]: 0.52 nM
- Kd [5]: 0.5 nM
- binding result [6]: no binding (tested: about 40 nM PD-L2 protein)

B5: K2×S93 CD47×PD-L1 bispecific antibody (bispecific antibody, human IgG1, kappa, lambda)
heavy: not shown
light 1: not shown
light 2: QSVLTQPPSASGTPGQRVTISCVSTSDHIAHKPVNWYQQLPGTAPKLLIYHDTSRPDGVPDRFSGSKSGTSASLAISGLQSEDEADYYCAAWDFATWPATEVFGGGTKLTVLGQPKAAPSVTLFPPSSEELQANKATLVCLISDFYPGAVTVAWKADSSPVKAGVETTTPSKQSNNKYAASSYLSLTPEQWKSHRSYSCQVTHEGSTVEKTVAPTECS
notes: also called K2xS93; K2×S93 bsAb
- Kd [5]: 0.7 nM

B9: K2×S15 CD47×PD-L1 bispecific antibody (bispecific antibody, human IgG1, kappa, lambda)
heavy: not shown
light 1: not shown
light 2: QSALTQPASVSGSPGQSITISCTGTSSDVVKNNFVSWYQQHPGKAPKLMIYFGSVRPSGVSNRFSGSKSGNTASLTISGLQAEDEADYYCSSWDEPDRPFGGGTKLTVLGQPKAAPSVTLFPPSSEELQANKATLVCLISDFYPGAVTVAWKADSSPVKAGVETTTPSKQSNNKYAASSYLSLTPEQWKSHRSYSCQVTHEGSTVEKTVAPTECS
notes: also called K2xS15; K2×S15 bsAb
- Kd [5]: 3 nM

B10: K2×S58 CD47×PD-L1 bispecific antibody (bispecific antibody, human IgG1, kappa, lambda)
heavy: not shown
light 1: not shown
light 2: B9 light 2 with T23N, G24S, T25P, R56T, P57G, S58P
notes: also called K2xS58; K2×S58 bsAb
- Kd [5]: 0.83 nM

The next lines start with results.

- binding result [4]: binds
- EC50 (read off the curve) [2]: ~0.1 nM
- binding result [3]: binds
- Kd [5]: 0.92 nM
B2: K2×S23 CD47×PD-L1 bispecific antibody (bispecific antibody, human IgG1, kappa, lambda)
heavy: not shown
light 1: not shown
light 2: B1 lambda light chain (anti-PD-L1 S46) with L30A, R31K, P32I
notes: also called K2xS23; K2×S23 bsAb
- binding result [6]: no binding (tested: about 40 nM PD-L2 protein)

- EC50 (read off the curve) [1]: ~0.03 nM
- EC50 (read off the curve) [2]: ~0.07 nM
- EC50 (read off the curve) [3]: ~0.03 nM
- IC50 [10]: 0.00252 nM
B4: S79 anti-PD-L1 mAb (antibody, human IgG1, lambda, V domains shown)
VH: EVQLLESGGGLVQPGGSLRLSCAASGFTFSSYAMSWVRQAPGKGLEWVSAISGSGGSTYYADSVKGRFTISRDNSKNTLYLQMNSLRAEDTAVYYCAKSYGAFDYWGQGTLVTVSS
VL: QSALTQPASVSGSPGQSITISCTGTSSDVFRPPLVSWYQQHPGKAPKLMIYFASLRPSGVSNRFSGSKSGNTASLTISGLQAEDEADYYCSSWDHTGDGHVFGGGTKLTVLG
notes: Bivalent monospecific IgG1 anti-PD-L1 antibody; also called S79_Sc3_1G7_VLCL2 aPDL1 IGLV2-23; anti-PD-L1 mAb S79
- binding result [6]: no binding (tested: about 40 nM PD-L2 protein)

- EC50 (read off the curve) [1]: ~0.03 nM
- EC50 (read off the curve) [2]: ~0.07 nM
- IC50 [8]: 0.05 nM
- Kd [5]: 0.7 nM
B6: K2×S94 CD47×PD-L1 bispecific antibody (bispecific antibody, human IgG1, kappa, lambda)
heavy: not shown
light 1: not shown
light 2: B5 light 2 with V23I, T25G, D27V, H28D, R55T
notes: also called K2xS94; S94 bsAb
- binding result [11]: no binding (tested: about 33 nM PD-L1 protein)

- Kd [5]: 0.8 nM
B7: K2×S96 CD47×PD-L1 bispecific antibody (bispecific antibody, human IgG1, kappa, lambda)
heavy: not shown
light 1: not shown
light 2: B5 light 2 with V23N, S24L, T25P, D27A, H28D, R55V, P56V, D57T
notes: also called K2xS96; K2×S96 bsAb

- EC50 (read off the curve) [1]: ~0.03 nM
- EC50 (read off the curve) [2]: ~0.07 nM
- IC50 [10]: 0.00084 nM
B8: S100 anti-PD-L1 mAb (antibody, human IgG1, lambda, V domains shown)
VH: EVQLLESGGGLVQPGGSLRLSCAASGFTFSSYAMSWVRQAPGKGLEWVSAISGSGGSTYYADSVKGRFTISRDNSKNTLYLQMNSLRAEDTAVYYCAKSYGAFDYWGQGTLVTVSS
VL: QSVLTQPPSASGTPGQRVTISCSGSSSNIENKPVNWYQQLPGTAPKLLIYHDTTRPSGVPDRFSGSKSGTSASLAISGLQSEDEADYYCAAWDFATWPATEVFGGGTKLTVLG
notes: Bivalent monospecific anti-PD-L1 antibody; also called anti-PD-L1 mAb 5100
- binding result [11]: no binding (tested: about 33 nM PD-L1 protein)
- binding result [6]: no binding (tested: about 40 nM PD-L2 protein)
